The values that follow are results of earlier work, collected in PMC9458874.

pKd: −log10 of the molar value.

This series deals with HAB1 (Arabidopsis thaliana) (UniProt Q9CAJ0).
UniProt Q9CAJ0, sequence (Q9CAJ0 23-511): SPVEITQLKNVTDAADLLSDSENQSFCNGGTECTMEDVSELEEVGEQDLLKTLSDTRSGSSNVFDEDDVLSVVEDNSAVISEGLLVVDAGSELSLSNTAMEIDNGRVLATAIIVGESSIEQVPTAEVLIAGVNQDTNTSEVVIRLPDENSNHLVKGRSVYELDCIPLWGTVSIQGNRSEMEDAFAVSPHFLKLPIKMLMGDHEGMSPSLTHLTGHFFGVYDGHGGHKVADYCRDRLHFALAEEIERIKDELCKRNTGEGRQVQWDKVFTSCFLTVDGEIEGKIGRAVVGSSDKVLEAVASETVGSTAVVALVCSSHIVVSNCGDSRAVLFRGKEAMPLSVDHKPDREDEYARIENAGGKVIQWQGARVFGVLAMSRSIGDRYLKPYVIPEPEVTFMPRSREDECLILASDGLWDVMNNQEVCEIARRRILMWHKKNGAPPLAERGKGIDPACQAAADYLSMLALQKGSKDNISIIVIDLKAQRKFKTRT

As for PYR1 (from UniProt O49686), the pKd was 7.52.

The term pKd denotes the Kd on a negative log10 scale, so that one unit is a factor of ten.
